By Kd is commonly meant the concentration at which binding is half-saturated.

In the assay the target is human CD81 tetraspanin membrane receptor, CD81-GlyGly-rho-1D4 (human) (UniProt P60033). The assay is described as follows: ELISA; plates coated with 100 ng rho-1D4 antibody; 100 ng purified CD81 captured by its C-terminal tag; HCV-E2 added at 0.4 to 20 nM for 2 h at room temperature in 25 mM Tris-HCl pH 7.5, 144 mM NaCl, 0.05% DM; detected with goat anti-E2 polyclonal antibody; nonspecific binding (no rho-1D4) subtracted; non-linear regression. For orientation: ELISA stands for enzyme-linked immunosorbent assay.
Sequence of UniProt P60033 (P60033 whole entry): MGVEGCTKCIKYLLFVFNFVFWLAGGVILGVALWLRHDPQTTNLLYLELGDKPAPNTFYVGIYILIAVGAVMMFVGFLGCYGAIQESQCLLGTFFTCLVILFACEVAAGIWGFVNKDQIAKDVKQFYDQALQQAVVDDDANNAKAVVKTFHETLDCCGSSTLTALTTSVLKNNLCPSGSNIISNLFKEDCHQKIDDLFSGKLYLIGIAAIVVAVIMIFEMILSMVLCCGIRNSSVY

The substance “Recombinant HCV E2 envelope protein (from UniProt P27958 384-746) (ligand)” gave a Kd of 3.8 nM.

For the origin of these results see PMC2391292.
